Reference: patent US6998239 (CHEMOCENTRYX, dated 2006)

B1: human TECK (thymus expressed chemokine) (ligand, UniProt O15444 24-150, looked up)
chain: QGVFEDCCLAYHYPIGWAVLRRAWTYRIQEVSGSCNLPAAIFYLPKRHRKVCGNPKSREVQRAMKLLDARNKVFAKLHHNTQTFQAGPHAVKKLSSGNSKLSSSKFSNPISSSKRNVSLLISANSGL
modifications: 125I label where used as radioligand
B2: murine ELC (ligand, UniProt O70460 26-108, looked up)
chain: GANDAEDCCLSVTQRPIPGNIVKAFRYLLNEDGCRVPAVVFTTLRGYQLCAPPDQPWVDRIIRRLKKSSAKNKGNSTRRSPVS
B3: murine TECK (ligand, UniProt O35903 24-144, looked up)
chain: QGAFEDCCLGYQHRIKWNVLRHARNYHQQEVSGSCNLRAVRFYFRQKVVCGNPEDMNVKRAMRILTARKRLVHWKSASDSQTERKKSNHMKSKVENPNSTSVRSATLGHPRMVMMPRKTNN
B4: mMIP-1gamma (murine macrophage inflammatory protein 1 gamma) (ligand, UniProt P51670 22-122, looked up)
chain: QITHATETKEVQSSLKAQQGLEIEMFHMGFQDSSDCCLSYNSRIQCSRFIGYFPTSGGCTRPGIIFISKRGFQVCANPSDRRVQRCIERLEQNSQPRTYKQ
notes: also called mMIP-1γ; CCF18
B5: human ELC (EBI1 ligand chemokine) (ligand, UniProt Q99731 22-98, looked up)
chain: GTNDAEDCCLSVTQKPIPGYIVRNFHYLLIKDGCRVPAVVFTTLRGRQLCAPPDQPWVERIIQRLQRTSAKMKRRSS
modifications: 125I label where used as radioligand
notes: also called MIP-3beta; MIP3beta
B6: human SLC (secondary lymphoid-tissue chemokine) (ligand, UniProt O00585 24-134, looked up)
chain: SDGGAQDCCLKYSQRKIPAKVVRSYRKQEPSLGCSIPAILFLPRKRSQAELCADPKELWVQQLMQHLDKTPSPQKPAQGCRKDRGASKTGKKGKGSKGCKRTERSQTPKGP
notes: also called 6Ckine
B7: murine CTACK (ligand, UniProt Q9Z1X0 26-120, looked up)
chain: LPLPSSTSCCTQLYRQPLPSRLLRRIVHMELQEADGDCHLQAVVLHLARRSVCVHPQNRSLARWLERQGKRLQGTVPSLNLVLQKKMYSHPQQQN
notes: also called mCTACK; CCL27

Experiments:
[1] = biological target: T1, human CCX CKR with N-terminal Flag epitope, stably expressed on HEK293 cells (human, UniProt Q9NPB9 1-350); test: displacement of 125I-ELC or 125I-TECK from CCX CKR transfectants, 200 nM cold chemokine
T1 construct: also called HEK293-CCX CKR cells
T1 sequence: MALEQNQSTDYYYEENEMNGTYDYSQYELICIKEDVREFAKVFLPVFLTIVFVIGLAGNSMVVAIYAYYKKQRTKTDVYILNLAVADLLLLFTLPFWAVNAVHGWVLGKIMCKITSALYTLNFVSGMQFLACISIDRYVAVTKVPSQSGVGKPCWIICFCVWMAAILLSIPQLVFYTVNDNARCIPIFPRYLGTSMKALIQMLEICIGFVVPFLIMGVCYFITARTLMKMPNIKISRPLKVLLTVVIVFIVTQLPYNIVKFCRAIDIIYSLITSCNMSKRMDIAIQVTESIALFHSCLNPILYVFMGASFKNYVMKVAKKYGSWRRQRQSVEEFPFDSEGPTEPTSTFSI

[2] = biological target: T1, human CCX CKR with N-terminal Flag …; test: radioligand binding competition on CCX CKR stable transfectants, Scatchard transformation
[3] = biological target: T1, human CCX CKR with N-terminal Flag …; test: radioligand binding competition on CCX CKR stable transfectants (similar experiments)

Binder | binding result [1] | other results
B1 | binds | 
B2 | binds | 
B3 | binds | 
B4 | binds | 
B5 |  | binding result [2]: binds
B6 |  | binding result [2]: binds
B7 |  | Kd [3]: ~9 nM
